Reference: publication PMC10658506 (2023)
Positions count from the first letter of the chain named.

T1: soluble human IL-11 receptor extracellular domain, his-tagged (human, UniProt Q14626 24-370)
T1 chain: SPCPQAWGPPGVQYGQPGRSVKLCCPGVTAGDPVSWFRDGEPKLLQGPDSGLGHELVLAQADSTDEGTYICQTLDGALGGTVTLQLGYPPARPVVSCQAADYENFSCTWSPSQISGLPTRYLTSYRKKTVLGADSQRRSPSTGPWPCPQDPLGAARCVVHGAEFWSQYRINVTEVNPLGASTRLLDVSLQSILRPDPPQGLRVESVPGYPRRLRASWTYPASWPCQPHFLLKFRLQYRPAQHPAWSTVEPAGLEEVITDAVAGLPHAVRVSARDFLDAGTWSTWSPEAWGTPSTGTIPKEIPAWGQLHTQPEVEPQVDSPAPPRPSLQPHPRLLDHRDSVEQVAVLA

B1: yeast-displayed IL-11 IPR (ligand)
chain: PGPPPGPPRVSPDPRAELDSIVLLTRSLLADTRQLAAQLRDKFPADGDHNLDSLPTPAMSARALGALQLPGVLTRLRADLLSYLRHVQWLRRAGGSSLKTLEPELGTLQARLDRLLRRLQLLMSRLALPQPPPDPPAPPLAPPSSAWGGIRAAHAILGGLHLTLDWAVRGLLLLKTRL
B2: yeast-displayed wild-type human IL-11 (ligand)
chain: B1 chain with I21T, P57L, R62G
B3: yeast-displayed IL-11 GIPRD (ligand)
chain: B1 chain with D19G, G71D
B4: yeast-displayed IL-11 GIPRDM (ligand)
chain: B1 chain with D19G, G71D, V72M

Target: T1, soluble human IL-11 receptor …
Assay: FACS

| Kd | Binder |
| --- | --- |
| 220 pM | B1 |
| 8200 pM | B2 |
| 190 pM | B3 |
| 290 pM | B4 |
